According to patent US11723946B2, “Methods for regulating transcription of multiple genes and expression of multiple targets” (CHINA MEDICAL UNIVERSITY, priority 2014, dated 2023):
Read-outs that look alike come from different tables or passages of the source.

Key:
[1] = Survival, diabetes incidence and retinopathy in NOD mice; assay type: in vivo; details: 20 weeks; for Incidence of diabetes, mice/mice: control 2/6; for Diabetes-induced retinopathy, mice/mice: control 3/6; for Survival rate, mice/mice: control 4/6
Protocol: 23 mice were divided into four groups with different administrations for 20 weeks, wherein 6 mice of the group 1 were control mice that were daily orally administrated with 20 μl of PBS. 6 mice of the group 2 were daily orally administrated with 20 μl of 0.01 umol/kg solution that contained the present polypeptide comprising the amino acid sequence of SEQ ID No. 1. 6 mice of the group 3 were daily orally administered with 20 μl of 0.1 umol/kg solution that contained the present polypeptide comprising the amino acid sequence of SEQ ID No. 1. 5 mice of the group 4 were daily orally administrated with 20 μl of 1 umol/kg solution that contained the present polypeptide comprising the amino acid sequence of SEQ ID No. 1.
During the administration period, the survival rate, incidence of diabetes and diabetes-induced retinopathy in the each group were measured and shown in table 5. After the administration, the blood samples were collected for serological and biochemical analysis.

NF-κB = assay: Whole animal bioluminescent imaging, LPS-induced NF-κB/luc transgenic mice; assay type: in vivo
Excerpt: Mice: The NF-κB/luc transgenic mice bearing the luciferase transgene driven by two copies of the NF-kappaB regulatory elements were mated with wild-type FVB mice to generate the hybrid NF-κB/luc transgenic offspring for the experiments. Whole animal bioluminescent imaging: 15 mice with age of 6˜8 weeks were randomly divided into three groups. The group 1 was the blank group; the group 2 was control group; and the group 3 was experimental group. The mice of the group 2 and the group 3 were administration with 100 ul of […] lipopolysaccharide (LSP) solution to induce the inflammation in the mice by intraperitoneal injection (IP injection). As the blank control, the mice of group 1 were administered with 100 μl of PBS by IP injection. After the LPS-injection for 5 minutes, the mice of the group 3 were further injected with 20 μl solution that contains 0.5 mg/Kg of the present polypeptide by IP injection. In contrast, the mice of the group 2 and the […] were injected with 20 μul of water. […] For in vivo imaging mice were anesthetized with isoflurane and injected intraperitoneally with 150 mg/kg luciferin. After 10 minutes, the mice were placed face up and imaged for 1 min with the camera set at the highest sensitivity by IVIS Imaging System-200 (Series Xenogen Hopkinton, Mass.). The photons emitted from the tissues were quantified by Living Images software (Xenogen, Hopkinton, Mass.) and were shown in FIG. 4A. In the FIG. 4A, the Y-axis shown the signal strength (photons/sec) that stands for total photons diffused from the mice.

[2] = test system: Column (IL-1β and TNF signaling pathway genes); details: Down-regulated, 2.5 mmol/kg daily, 7 days
Protocol: The wild-type FVB mice were divided into the control group and the experimental group, wherein the mice in the experimental group were daily administered with 20 μl peptide-containing solution that contains 2.5 mmol/kg of the present peptide for 7 days. Moreover, the mice in the control group were daily administrated with 20 μl PBS solution for 7 days.
After the daily administration, the tissues of column, muscle, fat pad, liver and kidney were collected for analyzing the expression of multiple targets by system biology analysis. Herein, the altered expressions of the targets in the genome were determined by using DNA microarray which is a well-established tool for systematic biology analysis. Furthermore, the results of the DNA microarray were further categorized and analyzed by bioinformatics analysis to determine the effect and affected signaling pathways of the present polypeptide. Therefore, it can determine the downstream targets of the present polypeptide comprising the amino acid sequence of SEQ ID No. 1 by the mechanism investigation through microarray analysis and gene expression profile. The detail steps including:
(1) RNA preparation: The total RNA was extracted from the tissue by using RNeasy Mini Kit (Qiagen, Valencia, Calif., USA). The amount of the extracted total RNA was measured by Beckman DU800 spectrophotometer (Beckman Coulter, Fullerton, Calif., USA). In the next step, the quality of the RNA sample with A260/A280 ratio more than 1.8 was further evaluated by Agilent 2100 bioanalyzer (Agilent Technologies, Santa Clara, Calif., USA). When with the RNA integrity number of the sample is more than 8.0, it would be analyzed by the following microarray analysis.
(2) DNA microarray analysis: The procedure of DNA microarray analysis was conducted according to the reference (Cheng, 2007). Briefly, 5 μg of total RNA was amplified by in vitro transcription using MessageAmp™ aRNA kit (Ambion). In the following, the fluorescence dye, Cy5, was chemically labeled on the amplified RNA (aRNA). After the labeling, the fluorescence labeled aRNA was hybridized with Whole Genome OneArray™ in hybridization buffer (Phalanx Biotech Group, Taiwan) on cover slide. Following the hybridization reaction at 50° C. over-night, the non-specific binding on the chip was washed by three washing steps. The washed chip was dried by centrifugation and was scanned by Axon 4000 scanner (Molecular Devices, Sunnyvale, Calif., USA) to measure the fluorescence signals. The fluorescence intensity of Cy5 on each spots was further analyzed by genepix 4.1 (Molecular Devices). First, the signals of each spot were adjusted by deducting the intensity of background. In the next step, the spots including the probes of internal controls or the spots with the signal-to-noise ratios less than […] would be removed. The qualified spots were normalized by limma package which is belonged to R console (Smyth, 2005).
(3). Analysis of the functional mechanism and affected signaling pathways by using bioinformatics software: The altered downstream targets, functional mechanisms, affected signaling pathways and the disease relevance were investigated by using the bioinformatics software such as Medical Subject Headings (MeSH, http://www.nlm.nih.gov/mesh/meshhome.html) and BiblioSphere Pathway Edition.

[3] = Group 2: 0.01 umol/kg daily oral
[4] = Group 3: 0.1 umol/kg daily oral

B1: present polypeptide: polypeptide comprising the amino acid sequence of SEQ ID No. 1; made by peptide synthesis, recombinant expression or extraction from Momordica charantia (peptide, listed as Artificial synthsis)
chain: SRCQGKSSWPQLVGSTGAAAKAWIERENPRVRAVIIKVGSGATKDFRCDRVRVWVTERGIVARPPTIG
- Incidence of diabetes, mice/mice [1, 3]: 0/6
- Diabetes-induced retinopathy, mice/mice [1, 3]: 0/6
- Survival rate, mice/mice [1, 3]: 6/6
- Incidence of diabetes, mice/mice [1, 4]: 0/6
- Diabetes-induced retinopathy, mice/mice [1, 4]: 1/6
- Survival rate, mice/mice [1, 4]: 6/6
- Incidence of diabetes, mice/mice ([1]; Group 4: 1 umol/kg daily oral): 1/5
- Diabetes-induced retinopathy, mice/mice ([1]; Group 4: 1 umol/kg daily oral): 1/5
- Survival rate, mice/mice ([1]; Group 4: 1 umol/kg daily oral): 5/5
- suppression of luminescent intensity (NF-κB; group 3 (LPS + 0.5 mg/Kg polypeptide IP)): about 38%
- average of luciferin value (NF-κB; group 3: LPS + 0.5 mg/Kg polypeptide IP, 4 hours after injection): 19.82×10^7 photons/sec
- Fold, Ccl2 ([2]; IL-1β signaling pathway): 1.71 folds
- Fold, Cdh2 ([2]; IL-1β signaling pathway): 1.73 folds
- Fold, Icam1 ([2]; IL-1β signaling pathway): 2.27 folds
- Fold, Pecam1 ([2]; IL-1β signaling pathway): 1.99 folds
- Fold, Tnfrsf11b ([2]; IL-1β signaling pathway): 2.74 folds
- Fold, ADIPOQ ([2]; TNF signaling pathway): 1.78 folds
- Fold, Bcl3 ([2]; TNF signaling pathway): 1.72 folds
- Fold, CD40 ([2]; TNF signaling pathway): 1.79 folds
- Fold, Casp3 ([2]; TNF signaling pathway): 1.71 folds
- Fold, Ikbke ([2]; TNF signaling pathway): 1.95 folds
- Fold, Irs1 ([2]; TNF signaling pathway): 1.73 folds
- Fold, Ltf ([2]; TNF signaling pathway): 1.99 folds
- Fold, Mapk3 ([2]; TNF signaling pathway): 2.32 folds
- Fold, Mapk9 ([2]; TNF signaling pathway): 1.53 folds
- Fold, Rxra ([2]; TNF signaling pathway): 1.89 folds
- Fold, Socs1 ([2]; TNF signaling pathway): 2.46 folds
- Fold, Tnfrsf11b ([2]; TNF signaling pathway): 2.74 folds
